Measured values as given in the DeepSol protein solubility set.

Experiment: soluble on expression in E. coli; label from the status in PepcDB or PDB records

Row | Sequence | soluble on expression in E. coli
1 | MLSIVCPPLSAQWAENFDHITALTSPPWRGQIADFAIIKKQLKLYVEYPDDLNESRIAITVPYFKTTTWKGDVKLDFRPTINNYLYCYLYCYGEISDSEFDYVALRWGSGSKGVDLLDVRLRVLPSGESSIVRSDILIDGSAYPLGTKPFTSFTVTYAVGSGWQLWVNGANDTGNETVLIGSSSFDVESPFQSGGLGIDCFYTKSRSKAFSFDNLSVSEGAVSPPEEEEEPIPLGKPTLNELMANPLEGGSEYIELYNPTDKPVVPSKFAIGILRNGSYTTTTALPTVADTLYPGQYIVFAKKSEGVTDFYPQAQNVVTMSNLPQLANKGFTIGLFEEGLDQPLEEVVYSPKMLGEGNVTRRGVSLERISFETPASDPTNWAGGLPSAGYATPGYLNSQSSNADTTQLGLPNNETEGNGKSYLPPASIAEE | not soluble
2 | MLSKKELAIITFLIHHKEQFVSSATLAEVIGMSDRTVRKYLKELISSLPEHGAHIISKQGRGYCLEIDHSMAFDIFWQESVTSKKRLADVTQVEESVDREDYVLHKFFFEDAVQDFEELCQELYISRTTLKHVLAGIKERIIPYQLELEITHQHIQIRGKEEDIRHFIMDYFFVTSFDNTLSTMVGNTFLEGINFAEIMIIVLDECRDAKLKLSDFVMNNLVLHIALMVQRIRSGCPLELFSIPIAIRQSDEYQVALRILYRVEEVMGIRFPKEEANYIALHLKVKHSVGKHWQDDNTDEKLQDHLKACIAKISQLTGMTLETDTNLFQGLLAHMMPLTIRLENHIQLTNPLTEEIKSQYPEIFTLTKQTFSDLLVCQKNDVSDDEWAYISLHLMAAIERYSNRHKLRVLVVCATGYGSAMMLKNRLEKEFEGRLRIVDVISYYEITEERLKTVDLIISSISLANLMFLTPVITVSVFLSNQDIETIRQFIGEQEGIKKEVSLPSQMSLAKAEQLLTGVFSPNRFLYLDEKISKEDLLLRMIACLDEAGTETFVEDFYHQMVLRENYSPVIYGEVLAFPHPANPMTYSEQVVVVICREPLEWDKAHQAVHFVFLLSPSKGHNHRLKYVSPGLASFVNQVELQQALLEEPNYSKFMTVFTPLIHD | not soluble
3 | MLSKVQCILNRRTMADVDVDVPSAAPVLDGAMDINTALQEVLKKSLIADGLVHGIHQACKALDKRQAVLCILAESFDEPNYKKLVTALCNEHQIPLIRVDSHKKLGEWSGLCKIDKEGKPRKVCGCSVVVIKDFGEETPALDVVKDHLRQNSLEHHHHHH | not soluble
4 | MLSSKEVYARLDAILPSSVDREDAESNLNAGEIEYAITALLDDAYTSVGLSDAVVSLIRENYDDGPVIDMLDALLYFQKLNSGGDAVRMQR | not soluble
5 | MLTESTDKKAVNQVIHYVYEGGGEAATDHNATVDFSRTITTDRVTNDKTYGDWTADNGDSFASVTSPVIDGYTADQLKVSEMTGITADTEDISVTVTYTRNQGTIDITYIDQTTGQTLSKLEHHHHHH | not soluble
6 | MLTGRESLLRLIGKRRRFLPNRHLLLSAHTPNSLNLEFNDYGNLVSLAGDDCRLSEDPTSSDDPSKFSDDLSLSTRKKRRLTQTTLLQSSFLSVPKQLEDGLVICTQQKSILDSETFEFSLVQRSEPSESICCKVEDGSCSPSREESLKTVTLDEDNGEAIETFIVGRKFSDVQDLEIGGDIFLLRHPENVKDRNAIKVISGDSEMLGYLPKDISQCLSPLIDDYDLKFEGTITSVPKKSSEAVLIKVVCHKMRSDGWKECELYGDFKPLWEKVLQVVEHQMQFPPKTTRYQLNFNVLLQEVLRSCSHLFTADEKAFLESFPTLSEDSQRLFIRLYTRKGPWFRLSNISYPEVTDSLQALKDLTVRGFMSSVKDANELDNQKMKEITELLNVTELRDILSMNKVFSRTSRKRDLINSLCSCYNDGTRINLATVILERTGLCAKVSSTAESLIWRVERLFFLNGEQDLSSFVLLDLGIIKYPTYKCIDSEQIFSNRTKLLAYEEAIEVAQLMDESLDNEDPQTVLKCIIIAETRISSSSLDSAHAAAFNRFTAPWVNSKVVLLGVSFFENQKRYNRAVYLLRRLLSCFNCDGRRGYWTVRLSTDLEHMGRPNESLTVAEQGLLDPWVRAGSRVALQRRILRLAKPPRRWKTPTFSNLVDNKIPEVTIQGRSLNCEVGIKNRFYGEDGEQCGVEQLALQYYSGEGGGWQGIHTESSIWLTIFGLLMWDILFSDVPGVFQTRFQVNETQ | not soluble
7 | MLTLLNRWRSQPGGASNAAAFIRVLESPKSAVTDKVLVLKAFNDWDVLVNTWFEVADALPAVEQLLDNNTFPEHSSAALLVSKVYFCLEQYERALEFALRGDFNVVPATRTGLGNDAEYVNKIIETAIDTYKTLSKQGSGIPQKLRDLIDRIVARNLDKREIWFVISLGFETTNLAMIDRAISAMPADLTIKNQTTLVETLNRVVNGAFDRSFRFQVIDTVIKTYLKCPSPDMSKICECYVLTDNAEAAADTITSLIAKSLSTRAYQIAFDLYETASQGFLDRVLKRFQQQDARDEKSMEKIHSILKGHETVKAYLDFFVRHNHTDSVLMEEIKENIRTASAHNALLISNGLMQYGTTCDDFLRNNLNWVSKATNWNKFNAVASLGLIHHGQESSAMKVLEPYLPKESVEGFGFKEGGAMLAYGLIHAKHGDATAMSTLAQWLKTAENEPVRHGACLGFGVAGLGSSSVSNYEKVREVLQRDEAVSGESAGIAMGLIMAGHLNQEVFNELKQYTVDTQHDKTQRGIRTGLACAAFGLQGDAEPYIKEAIGAKSNPMLRSTGICMLSMAYAGTGSPDVVRRLLEKVATDPNLDVKRYATIGIGFVLSKDPSTCLSYVAMLTEHFNGHVRYGAAMALGIACAGTGNMEAIALIEPMISDKEGFVRKGALLSLALIMCQQTDYTCPKVNGFRKQLLKKIGEKNEDSLVKFGAIIAQGLLDIGGQNAAVTMQNSDKQPDMGSMVGMMCFLHGWFWHSMHFFIALAAKPSCLVMMNENLKIPVLDYICHANSQKFAYPPRAESKKDKDVKKIETVVLSITGKKNASKKLIAEEKKRREAAASASSAAAAPSSSSTSGTAPAAEDEKMEVDQPGKSKKEKAPEKDTKPLHRLQNPARVIPAQRQLISISDARAYSPMKPLYKGGIIVADRVDKEREEKLVSEVVTQVNTPASSGNTENKPHSTFEININDF | not soluble
8 | MLTPRDENNEGDAMPMLKKPRYSSLSGQSTNITYQEHTISREERAAAVGRHEGFRGCTIWFTGLSGAGKTTISFALERTLNKLGIPCYGLDGDNIRHGLCKNLGFSKEDRQENIRRVAEVAKLFADSGMICLAAFISPFQEDRLDARKIHESENVKFIEVHVSTTLEVCEQRDPKQLYKKARAGQILGFTGIDSAYEPPENAEIILDAGKDGVQQCVQKVLDHLESKGLLPEQIPDVPAVRELFVSDDLTVAELLKESQNLPTVELTKVDLQWLQVLAEGWATPLSGFMRERQYLQSMHFGQLLDLKHKVAFVGEKSDDKEDSWPMMDDINQSIPIVLPISDDVKKGLEGVTRIALKYNGQVYAILSDPEIFEHRKDERVCRQFGTNDPRHPAVAQVLESGNWLLGGDVAVVQKIQFNDGLDKYRKTPNELRAIFAEKNADAVFAFQLRNPIHNGHALLMRDTREKLLAEHKNPILLLHPLGGWTKDDDVPLDIRIKQHEAVIAERVLDPEWTVLSIFPSPMMYAGPTEVQWHARSRIAAGIQHYIVGRDPAGIQKPGSPDALYETTHGAKVLSMAPGLSALHILPFRVAAYDKTAKKMSFFDTSRKEDFENISGTKMRGLARNGDTPPEGFMAPTAWEVLAGYYKSLQNSN | not soluble
9 | MLTQEHINIIKSTIPLLESAGPALTQHFYQRMFSHNPELKHIFNMTHQKTGRQSVALFEAIAAYAKHIDNLAALTSAVERIAHKHTSFNIQPEHYQIVGHHLLETLRELAPDAFTQPVEEAWTAAYFFLAQVFIDREGALYLERKQALGGWRDGRTFVVREKQVESAYVTSFVLVPADGGAVLDYQPGQYIGIEVTPEGSDYREIRQYSLSHASNGREYRISVKREGVGSDNPGLVSHYLHNNVKVGDSVKLYAPAGDFFYVERERPVVLISAGVGATPMQAILHTLAKQNKSGVTYLYACNSAKEHTFAQETAQLIAQQGWMQQVWYRDESADDVLQGEMQLAELILPIEDGDFYLCGPIGFMQYVVKQLLALGVDKARIHYEVFGPHAQLAA | not soluble
10 | MLTVIAEIRTRPGQHHRQAVLDQFAKIVPTVLKEEGCHGYAPMVDCAAGVSFQSMAPDSIVMIEQWESIAHLEAHLQTPHMKAYSEAVKGDVLEMNIRILQPGI | soluble
11 | MLTWSTSATSSKPTLRGKIPNSKAAEEFLDSWDNAVFDGKSTGDPELDREASLWRDKFPHLRITGSRFESQKVTHPIPVDSLSFQKSIIQHSKSANAIREKLPKIDNFKKK | not soluble
12 | MLVAGAGALCLTLSGCAGAGSLGASDQTITIAMVSNSQMQDAQKLASQFEEENPDIDLKFVTLSENQARAKITASTATGGGEFDVVMISNYETPQWAKYGWLKNLSEYAEATEGYDEADFIPTLRESLSYEGNMYSVPFYGESSFLMYRKDLFEQAGITLSEKPTWTEVATAAKQLDSEDMAGICLRGKPGWGELLAPLDTVINTFGGRWFDEDWNAQLTSPEVERAVQFYVDLVREYGEPGAATSGFGECATQLAQGQVAMWYDSTSAVSTLEDPASSAVVGKIGYAPAPIEVKDNSGWLYSWSLGIPESSENPDAAWKFISWMTDKQYIRTVGEDLGWERVPPGSRLSTYEIPEYKEASAAYGPLTLEAIEDATPNAPTVQPVPYTGVQFLAIPEFQDLGTRVSQQISAAIAGQQTVPEALAQAQQYAEVVGATYREDR | not soluble
13 | MLVEDSGHHLPESADIENALDLLLKAQLERAFGPELAEHFWAARQPRTLDERLAFIRKCWIGVFKDSPLSTFGLERLEQLERLCRSKRRGRELSAAEHHQFAEELARLWEQVQRLLPRAAPETSYASSASAGGVHSGDAHTPATLSDAESAHAAPEAMRIEAPATSARSASGCMARVSSDVAAAATNVSLVVLDGENIAWAHGQNAVFSPKGIAIAVDFFRKRGYRCVVFLPDYRRKRADLPTVSASDALVFVPAGEYDDTFALGYAVGHDAILVTNDLLQDHLDQFYPDEGEAREALRKWLGSHRCSFTFVGDEFLPNPHFFLP | not soluble
14 | MLVKGNEILLKAHKEGYGVGAFNFVNFEMLNAIFEAGNEENSPLFIQASEGAIKYMGIDMAVGMVKIMCERYPHIPVALHLDHGTTFESCEKAVKAGFTSVMIDASHHAFEENLELTSKVVKMAHNAGVSVEAELGRLMGIEDNISVDEKDAVLVNPKEAEQFVKESQVDYLAPAIGTSHGAFKFKGEPKLDFERLQEVKRLTNIPLVLHGASAIPDNVRKSYLDAGGDLKGSKGVPFEFLQESVKGGINKVNTDTDLRIAFIAEVRKVANEDKSQFDLRKFFSPAQLALKNVVKERMKLLGSANKI | soluble
15 | MLVLIRVFNTLGRRKEVFNPYSPPLVGMYVCGPTVYDYTHIGHARTFTVFDAIKRYLRLRGYDVFHVQNITDIDDKIINRAREEGRDWREIVREYSRDYLEGLGSLGIQIDHHPRVTDHISDIIRFIEGLIEKGYAYVAESGSVYFEVDKYPGYGMLSGHLSKEAWRQEEDVLHEKKSPYDFALWKAAKPGEPSWESPWGRGRPGWHIECSVMSSRYLGSRIDIHGGGVDLVFPHHENERAQSESYFGHRWVRYWLHASYLTIKGEKMSKSLGNIIPLREALREWGPGPLRLWLLSSHYRSNLDYSEEALGQYRRLYERLRQAADSIGRRLERAEPKGRLGEGELETVERLKGVVRRWHEAMSDDFNMGKAMSSLWEFTTIYFREVEQTESYTLLWLSWRILTGFNSVYAFAPDIVEARRPERSLEDSLVQALVDVRSELRRRKMYDLADEIRSRLAQLGFVLHDKGEKTEWRRR | soluble
16 | MLVLYRASIRFKLRKNKNSFDSSNYFYGGNNICIINTKWGKHSGIGGYAEIIDTLVGNFTNISSWAKIGIRDHIHTNFLICDFVYKDNDHIMPPGISSFEDYWVKIGNDVWVGTNVTILRGVEVGDGAVIAAGSVVTKSIPPYAIVGGNPAKFIKWRFPFEVREKLLEIKWWDWDDDLIKEKKDYLQNLVGFDMDKYKIEYRKRKEDLFYLEHHHHHH | soluble
